This data set in a line: yeast display, Sf9 membrane polyspecificity reagent, FACS + sequencing; frameworks hold sequencing errors. The method in brief: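 Genes from sorted yeast were amplified by colony PCR, read by MiSeq 2 × 250 sequencing and filtered on CDR length. These cells carried a synthetic nanobody library in Saccharomyces cerevisiae BJ5465 and were sorted by FACS into low and high (top ~1%) gates on anti-HA and streptavidin fluorescence. Polyreactivity is labelled according to the gate of origin.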
Regarding “QVQLVESGGGLVQAGGSLRLSCAASGRISRCYVMGWYRQEPGKERELVAAITWNSGSTYYADSVKGRFTISRDNAKNTVYLQMNSLKPEDTAVYYCAAVLYSRYQQYDFWGQGTQVTVSS”, the “polyreactivity (PSR sort gate)” value is listed as “high polyreactivity”.
As for “QVQLVESGGGLVQAGGSLRLSCAASGRISSGYAMGWYRKAPGKERELVAAISSIGGRTYYADSVKGRFTISRDNANNTVYLQMNSLKPEDTAVYYCNAGTYRRIGGYDYWGQGTQVTVSS”, the “polyreactivity (PSR sort gate)” value is reported as “high polyreactivity”.
Consider “QVQLVESGGGLVQAGGSLRLSCAASGRISSQYAMGWYRQAPGKERELVAAISTSGDRTYYADSVKGRFTISRDTAKNTVYLEMNSLKPEDTAVYYCAKDCPYTYGRDIYEYWGQGTQVTVSS”, for which the “polyreactivity (PSR sort gate)” value is “low polyreactivity”.
The value for “QVQLVESGGGLVQAGGSLRLSCAASGRISVFNAMGWYRQAPGKERELVAAITSGGSTNYADSVKGRFTISRDNAKNTVYLQMNSLKPEDTAVYYCNADVYHSHEPHYDYWGQGTQVTVSS” was “low polyreactivity”.
The same measure for “QVQLVESGGGLVQAGGSLRLSCAASGRISVRIYAMGWYRQAPGKERELVAIIARSGGSTYYADSVKGRFTISRDNAKHTVYLPMNSLKPADTAVYYCAAGYRTRRGLGYYYWGQGTQVTVSS”: “high polyreactivity”.
The same measure for “QVQLVESGGGLVQAGGSLRLSCAASGRISVYNMGWYRQAPGKERELVAAISNGGSTNYADSVKGRFTISRDNAKNTVYLQMNSLKPEDTAVYYCNRRVPYSFYSRGYYYWGQGTQVTVSS”: “high polyreactivity”.
Turning to “QVQLVESGGGLVQAGGSLRLSCAASGRISWVYPMGWYRKAPGKERELVAAITFSGGSTYYADSVKGRFTISRDNAKNSVYLQMNSLKPEDTAVYYCAADVLAIYSHRYYRYDSWGQGTQVTVSS”, the “polyreactivity (PSR sort gate)” value is on record as “high polyreactivity”.
As to “QVQLVESGGGLVQAGGSLRLSCAASGRISYGYAMGWYRQAPGKERELVAAISRSGGTTYYADSVKGRFTISRDNAKNTVYLQMNSLKPEDTAVYYCNRVWYATDFVNTMGYWGQGTQVTVSS”, the “polyreactivity (PSR sort gate)” value is on record as “low polyreactivity”.
On to “QVQLVESGGGLVQAGGSLRLSCAASGRISYGYVMGWYRQAPGKERELVAAISRTGGNTYYADSVKGRFTISRDNAKNTVYLQMNSLKPEDTAVYYCAKVYKTGITQYDYWGQGTQVTVSS”, for which the “polyreactivity (PSR sort gate)” value is given as “high polyreactivity”.
“QVQLVESGGGLVQAGGSLRLSCAASGRISYYYMGWYRQAPGKERELVAAISWNGGRTYYADSVKGRFTISRDNAKNTVYLQMNSLKPEDTAVYYCAARFYSRAFWPAYYYWGQGTQVTVSS”: the “polyreactivity (PSR sort gate)” value was “high polyreactivity”.
For “QVQLVESGGGLVQAGGSLRLSCAASGRITFSHNTMGWYRQAPGKERELVAAISSGGRTNYADSVKGRFTISRDNAKNTVYLQMNSLKPEDTAVYYCARESHYDFIYDGMDYWGQGTQVTVSS”, the “polyreactivity (PSR sort gate)” value was “low polyreactivity”.
Regarding “QVQLVESGGGLVQAGGSLRLSCAASGRITGIYAMGWYRPAPGKERELVAAITWRGGRTCYADSVKGRFTISRDNAKNSVYLQMNSLKPEDTAVYYCAAELQGAYYFAYYYWGQGTQVTVSS”, the “polyreactivity (PSR sort gate)” value was “high polyreactivity”.
The same measure for “QVQLVESGGGLVQAGGSLRLSCAASGRITVFYTMGWYRQAPGKERELVATITRSGSRTYYADSVKGRFTISRDNAKNTVYLQMNSLKPEDTAVYYCARSQAVYDGWFAKFGYWGQGTQVTVSS”: “low polyreactivity”; for “QVQLVESGGGLVQAGGSLRLSCAASGRIVEVYAMGWYRQARGKERELVAAISSGGGSTYYADSVKGRFTISRDNAKNTVYLQMNSQKPEDTAVYYCAARKPSVRGAPYYYWGQGTQVTVSS”: “high polyreactivity”.
For the sequence “QVQLVESGGGLVQAGGSLRLSCAASGRIVGRHALGWYRQAPGKERELVAAMSSSGGTYYADSVKGRFTISRDKAKNTLYLQMNSLKPEDTAVYYCNARVRTQQRWVDYWGQGTQVTVSS”, the “polyreactivity (PSR sort gate)” value is reported as “high polyreactivity”.
The value for “QVQLVESGGGLVQAGGSLRLSCAASGRIVRPNAMGWYRQAPGKERELVAAIRSTVGSTFYADSVKGRFTISRDNAKNTVYLEMISLKPEDTAVYDCAAGTSRQFFYWGQGTQVTVAS” was “low polyreactivity”; that for “QVQLVESGGGLVQAGGSLRLSCAASGRIVSGYAMVWYRQAPGKERELVAAITSGGSTNYADSVKGRFTLSRDNAKNTVYLQMNSLKPEDTAVYYCAADSREVSTTAYYYWGQGTQVTVSS” was “low polyreactivity”; that for “QVQLVESGGGLVQAGGSLRLSCAASGRIWGYAMGLYRQAPGKARELVATITYNSGRTYYADSVKGRFTISRDNAKNTVYLQMNSLKPEDTAVYYCNKDFDGRFDYWGQGTQVNVSS” was “high polyreactivity”.
The same measure for “QVQLVESGGGLVQAGGSLRLSCAASGRIYFNAMGWYRQAPGKERELLADISWIGGSTYYADSVKGRFTISRDNGKNTVYLQMNRLKPEYTAVYYCAAVFLSWWDSYDFWGQGTQVTVSS”: “high polyreactivity”; for “QVQLVESGGGLVQAGGSLRLSCAASGRIYGLYAMGWYRQAPGKERELVAAISEGGGSTNYADSEKGRFTISRDNAKNTFYLQMNSLKPDDTAVYYCAATYRTGVRRYYSWGQGTQVTVSS”: “low polyreactivity”; for “QVQLVESGGGLVQAGGSLRLSCAASGRIYGVYVMGWSRQAPGKERELVAAISWGGGTYYADSVKGRFTISRDNSKNTVTLKMNSLKPEDTAVYYCNAESYYTMYYWGQGTQVTVSS”: “low polyreactivity”.
The value for “QVQLVESGGGLVQAGGSLRLSCAASGRIYIDYAMGWYRQAPGKERELVATISESGGSTYYADSVKGRITISRDNAKNTVYLQMNSLKPEDTAVYYCAVDDRSGTVYFYTKFDYWGQGTQVTVSS” was “low polyreactivity”; that for “QVQLVESGGGLVQAGGSLRLSCAASGRIYKRYDMGWYRQAPGKERELVAAITGTGGSTYYADSVKGRFTISRDNAKNTVYLQMNSLKPEDTAVYYCAARLYNTYSGFAFGYWGQGTQVTVSS” was “high polyreactivity”.
In the case of “QVQLVESGGGLVQAGGSLRLSCAASGRIYNSNAMGWYRQAPGKERQLVAAITTSGASTYYADSVKGRFTISRDNAKNTVYLQMNSLKPEDTSVYYCATYAVVYPFAMDYWGQGTQVTVSS”, the “polyreactivity (PSR sort gate)” value is on record as “low polyreactivity”.
Take “QVQLVESGGGLVQAGGSLRLSCAASGRIYRENAMGWYRQAPGKEREFVAVISISDASTYYADSVKGRFTISRDNAKNTVYLQMNSLKPVDTAVYYCAADLTDFLYVSSDFWGQGTQVTVSS”: the “polyreactivity (PSR sort gate)” value is on record as “low polyreactivity”.
As to “QVQLVESGGGLVQAGGSLRLSCAASGRIYTMGWYRQAPGKERELVAAISKSGGSTSYADSVKGRFTISRDNAKNTVYLQMNSLKPEDTAVYYCAALHYGRYRMDYWGQGTQVTVSS”, the “polyreactivity (PSR sort gate)” value is recorded as “high polyreactivity”.
“QVQLVESGGGLVQAGGSLRLSCAASGRLFKDNAMGGYRQAPGKERELVATIDSGGDTNYADSVKGRFTISRDNAKNTVYLQMNSLKPEDTAVYYCNTAGRGGIPSGFDYWGQGTQVTVSS”: the “polyreactivity (PSR sort gate)” value is listed as “low polyreactivity”.
As to “QVQLVESGGGLVQAGGSLRLSCAASGRLFKRYNMGWYRQGPGKDRELVAAIRSGGSTNYADSVKGRFTISRDNAKNTVYLPMNSLKPEDTAVYYCAARSTAYRGGSYAYDYWGQGTQVTVSS”, the “polyreactivity (PSR sort gate)” value is “high polyreactivity”.
The value for “QVQLVESGGGLVQAGGSLRLSCAASGRLFSRYAMGWNRQAPGQQRELVAAITRGGGSTYYADSVKGRFTISRDNAKNTVYLQMNSLKPEDTAVYYCNKASVQYYGDVYWGQGTQVTVSS” was “high polyreactivity”; that for “QVQLVESGGGLVQAGGSLRLSCAASGRLFYYNAMGWYRQAPGKERELVAAISWSGGSTYYADSVKGRFTISRDNAKNTVYLQMNSLKPEDTAVYYCAVDVYGYTPRPTREPLIYEYWGQGTQVTVSS” was “low polyreactivity”.
Regarding “QVQLVESGGGLVQAGGSLRLSCAASGRLLGFNVMGWYRQAPGKERELVAAITTSGGSTYYADSVKGRFTISRDNAKNTVYLQMHSLKPEDTAVYYCAAVKVQITLLHGDDYWGQGTQVTVSS”, the “polyreactivity (PSR sort gate)” value was “high polyreactivity”.
For “QVQLVESGGGLVQAGGSLRLSCAASGRNFFRYAMGWYRQAPGKERELVAAISRSGGRTYYADSVKGRCTLSRDNAKNTVFLQMNSLNREDTAVYYCAVRYRQYSQTVASDYGYWGPGTQVTVSS”, the “polyreactivity (PSR sort gate)” value is “high polyreactivity”.
The same measure for “QVQLVESGGGLVQAGGSLRLSCAASGRNFGYNAMGWYRQAPGKERELVAAITTSGGSTYYADSVKGRFTISRDNAKNTVYLQMNSLKPEDTAVYYCARDSLQVLYPYASDDSWGQGTQVTVSS”: “low polyreactivity”; for “QVQLVESGGGLVQAGGSLRLSCAASGRNFKPNVMGWYRQAPGKERELVAAISWSGGASTYYADSVKGRFTISRDNAKNTVYLQMNSLKREDTAVYYCNAAKRNRYDYWGQGTQVTVSS”: “low polyreactivity”.
The value for “QVQLVESGGGLVQAGGSLRLSCAASGRNFKYYTMGWYRQAPGKETELVAAISSGGRTKYADSVKGRFTISRDNAKNTVYLQMNSLKPEDTAVYYCNAGYPYPFYRSSQTGGYDYWGQGTQVTVSS” was “high polyreactivity”; that for “QVQLVESGGGLVQAGGSLRLSCAASGRNFNKNAMGWYRQAPGKERELVAAITDRGGSTNYADSVKGRFTISRDNAKNTVYLQMNSLKPEDTAVYYCNTGRKLVYRYPGYDYWGQGTQVTVSS” was “low polyreactivity”; that for “QVQLVESGGGLVQAGGSLRLSCAASGRNFNVKAMGWYIQAPGKESELVAGITRGGITTYADSVKGRFTISRDNAKNSVYLQMYSLKPVDTAVYYCAAVGWGSRYDTWYYLYDYWGQGSQVTVSS” was “high polyreactivity”.
Turning to “QVQLVESGGGLVQAGGSLRLSCAASGRNFPSYAMGWYRQAPGKERELVAAISFSGASTYYADSVKGRFTFSRDNAKNTVYLQMNSLKPEDTAVYYCNASGVGADVQWSWEEGDYWGQGTQVTVSS”, the “polyreactivity (PSR sort gate)” value is “low polyreactivity”.
For the sequence “QVQLVESGGGLVQAGGSLRLSCAASGRNFPVNAMGWYRQAPGKERELVATISYSGSSTYYADSVKARFTISRDNAKNTVYLQMNSLKPEDTAVYYCNADAESFDDGYWGQGTEVTVSS”, the “polyreactivity (PSR sort gate)” value is recorded as “low polyreactivity”.
In the case of “QVQLVESGGGLVQAGGSLRLSCAASGRNFPYYAMGWYRQAPGKERELVATISSSGGSTYYADSVKGRFTISRDNAKNTVYLQMNSLKPEDTAVYYCAADWYGYRQFHGYYWGQGTQVTVSS”, the “polyreactivity (PSR sort gate)” value is “high polyreactivity”.

The values are drawn from the nanobody polyreactivity screen of Harvey et al. (2022).
